Source: patent US20120276537

Test system: ZFNRosa (Rosa26-specific zinc finger nuclease pair) (synthetic construct)
Test: cell_activity
Details: mouse zygote mRNA microinjection; 13 of 58 pups lost XbaI site; ZFN pair, half-sites of the monomers not stated; homologous recombination also seen (pup 22 …)

With “TGCAACTCCAGTCTTTCTAGAAGATGGGCGGGAGTC (double strand) [Rosa26 intron 1 ZFN target site]” the activity (% of pups with NHEJ XbaI loss) was 22.
